Test results taken from article PMC3684052 (Molecular cell, 2013).
Substitutions are numbered along the chain they refer to. Numbers in names are those of the source. No end group written: not given here.

T1: His-ICAP1 (49–200), wild type (human, UniProt O14713 49-200)
T1 sequence (looked up): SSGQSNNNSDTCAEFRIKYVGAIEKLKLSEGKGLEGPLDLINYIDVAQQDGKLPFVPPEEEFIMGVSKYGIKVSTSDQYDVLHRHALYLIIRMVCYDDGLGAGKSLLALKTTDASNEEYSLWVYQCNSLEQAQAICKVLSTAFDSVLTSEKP

T2: His-ICAP1 (49–200) L135A/I138A/I139A (human, UniProt O14713 49-200, L135A | I138A | I139A)
T2 sequence (looked up): T1 sequence (looked up) with L87A, I90A, I91A

T3: His-ICAP1 (49–200) C184D (human, UniProt O14713 49-200, C184D)
T3 sequence (looked up): T1 sequence (looked up) with C136D

T4: His-ICAP1 (49–200) I89R (human, UniProt O14713 49-200, I89R)
T4 sequence (looked up): T1 sequence (looked up) with I41R

T5: His-ICAP1 (49–200) D93A/Q96A (human, UniProt O14713 49-200, D93A | Q96A)
T5 sequence (looked up): T1 sequence (looked up) with D45A, Q48A


Experiments:
Assay in all cases: pull-down
[1] = target: T1, His-ICAP1 (49–200), wild type
[2] = target: T2, His-ICAP1 (49–200) L135A/I138A/I139A
His-ICAP1 (49–200) C184D = target: T3, His-ICAP1 (49–200) C184D
His-ICAP1 (49–200) I89R = target: T4, His-ICAP1 (49–200) I89R
[3] = target: T5, His-ICAP1 (49–200) D93A/Q96A

binding result [1] | binding result [2] | binding result (His-ICAP1 (49–200) C184D) | binding result (His-ICAP1 (49–200) I89R) | binding result [3] | Binder
binds | – | – | – | – | QSHFIPDLFRPSDLERIKTNVINPAYATE (domain or fragment, human, UniProt O00522 170-198, looked up) [GST-KRIT1 (residues 170–198) A176D/P182D]
binds | binds | binds | binds | binds | QSHFIPALFRPSPLERIKTNVINPAYATE (domain or fragment, human, UniProt O00522 170-198, looked up) [GST-KRIT1 (residues 170–198), wild type]
binds | – | – | – | – | QSHFIPALFAPSPLEAIKTNVINPAYATE (domain or fragment, human, UniProt O00522 170-198, looked up) [GST-KRIT1 (residues 170–198) R179A/R185A]
binds | – | – | binds | binds | KLLMIIHDRREFAKFEKEKMNAKWDTGENPIYKSAVTTVVNPKYEGK (domain or fragment, UniProt P05556 752-798, looked up, also: GST fusion) [GST-integrin β1 fusion protein (residues 752 to 798), wild type]
binds | – | – | – | – | QSHFIPALFRPSPLERIKTNVIAPAAATE (domain or fragment, human, UniProt O00522 170-198, looked up) [GST-KRIT1 (residues 170–198) N192A/Y195A]
